Source: patent US20210388087A1 (Chugai, published 2021)

Molecular target: T1, CD3 epsilon homodimer protein (UniProt P07766 23-126)
T1 construct: immobilized on Sensor chip CM4 by amine coupling; also called CD3 (CD3 epsilon)
Experiment: SPR (Biacore T200), CD3 epsilon homodimer on CM4 chip, one-arm antibody as analyte, 25 C;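 further: homodimer attached to the sensor surface via amine coupling, HBS-EP+ used as running buffer during binding runs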
Procedure: An appropriate amount of CD3 epsilon homodimer protein was immobilized onto Sensor chip CM4 (GE Healthcare Japan Corp.) by the amine coupling method. Then, the antibody having an appropriate concentration was injected thereto as an analyte and allowed to interact with the CD3 epsilon homodimer protein on the sensor chip. Then, the sensor chip was regenerated by the injection of 10 mmol/L glycine-HCl (pH 1.5). The assay was conducted at 25 degrees C., and HBS-EP+(GE Healthcare Japan Corp.) was used as a running buffer. […] Each parameter was calculated using Biacore T200 Evaluation Software (GE Healthcare Japan Corp.).

T1 sequence (P07766 23-126): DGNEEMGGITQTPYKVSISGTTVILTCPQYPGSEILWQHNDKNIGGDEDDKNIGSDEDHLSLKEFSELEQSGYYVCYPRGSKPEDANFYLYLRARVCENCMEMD

Binder | ratio of amounts bound (altered form / CE115HA000)
CE115HA000 A60D one-arm antibody (antibody, human IgG1, kappa, L234A L235A, N297A, name in Kabat numbering) heavy: QVQLVESGGGVVQPGRSLRLSCAASGFTFSNAWMHWVRQAPGKGLEWVAQIKAKSNNYATYYDESVKGRFTISRDDSKNSLYLQMNSLKTEDTAVYYCRYVHYGAYYGVDAWGQGTTVTVSSASTKGPSVFPLAPSSKSTSGGTAALGCLVKDYFPEPVTVSWNSGALTSGVHTFPAVLQSSGLYSLSSVVTVPSSSLGTQTYICNVNHKPSNTKVDKKVEPKSCDKTHTCPPCPAPEAAGGPSVFLFPPKPKDTLMISRTPEVTCVVVDVSHEDPEVKFNWYVDGVEVHNAKTKPREEQYASTYRVVSVLTVLHQDWLNGKEYKCKVSNKALPAPIEKTISKAKGQPREPQVYTLPPSRCELTKNQVSLSCAVKGFYPSDIAVEWESNGQPENNYKTTPPVLDSDGSFFLVSKLTVDKSRWQQGNVFSCSVMHEALHNHYTQKSLSLSPDYKDDDDK EPKSSDKTHTCPPCPAPELLGGPSVFLFPPKPKDTLMISRTPEVTCVVVDVSHEDPEVKFNWYVDGVEVHNAKTKPREEQYNSTYRVVSVLTVLHQDWLNGKEYKCKVSNKALPAPIEKTISKAKGQPREPQVCTLPPSRDELTKNQVSLWCLVKGFYPSDIAVEWESNGQPENNYKTTPPVLDSDGSFFLYSKLTVDKSRWQQGNVFSCSVMHEALHNRYTQKSLSLSP light: DIVMTQSPLSLPVTPGEPASISCRSSQSLVHSNRNTYLHWYQQKPGQAPRLLIYKVSNRFSGVPDRFSGSGSGTDFTLKISRVEAEDVGVYYCGQGTQVPYTFGQGTKLEIKRTVAAPSVFIFPPSDEQLKSGTASVVCLLNNFYPREAKVQWKVDNALQSGNSQESVTEQDSKDSTYSLSSTLTLSKADYEKHKVYACEVTHQGLSSPVTKSFNRGEC | 0.99
CE115HA000 A60E one-arm antibody (antibody, human IgG1, kappa, L234A L235A, N297A, name in Kabat numbering) heavy: QVQLVESGGGVVQPGRSLRLSCAASGFTFSNAWMHWVRQAPGKGLEWVAQIKAKSNNYATYYEESVKGRFTISRDDSKNSLYLQMNSLKTEDTAVYYCRYVHYGAYYGVDAWGQGTTVTVSSASTKGPSVFPLAPSSKSTSGGTAALGCLVKDYFPEPVTVSWNSGALTSGVHTFPAVLQSSGLYSLSSVVTVPSSSLGTQTYICNVNHKPSNTKVDKKVEPKSCDKTHTCPPCPAPEAAGGPSVFLFPPKPKDTLMISRTPEVTCVVVDVSHEDPEVKFNWYVDGVEVHNAKTKPREEQYASTYRVVSVLTVLHQDWLNGKEYKCKVSNKALPAPIEKTISKAKGQPREPQVYTLPPSRCELTKNQVSLSCAVKGFYPSDIAVEWESNGQPENNYKTTPPVLDSDGSFFLVSKLTVDKSRWQQGNVFSCSVMHEALHNHYTQKSLSLSPDYKDDDDK EPKSSDKTHTCPPCPAPELLGGPSVFLFPPKPKDTLMISRTPEVTCVVVDVSHEDPEVKFNWYVDGVEVHNAKTKPREEQYNSTYRVVSVLTVLHQDWLNGKEYKCKVSNKALPAPIEKTISKAKGQPREPQVCTLPPSRDELTKNQVSLWCLVKGFYPSDIAVEWESNGQPENNYKTTPPVLDSDGSFFLYSKLTVDKSRWQQGNVFSCSVMHEALHNRYTQKSLSLSP light: DIVMTQSPLSLPVTPGEPASISCRSSQSLVHSNRNTYLHWYQQKPGQAPRLLIYKVSNRFSGVPDRFSGSGSGTDFTLKISRVEAEDVGVYYCGQGTQVPYTFGQGTKLEIKRTVAAPSVFIFPPSDEQLKSGTASVVCLLNNFYPREAKVQWKVDNALQSGNSQESVTEQDSKDSTYSLSSTLTLSKADYEKHKVYACEVTHQGLSSPVTKSFNRGEC | 0.94
CE115HA000 A99K one-arm antibody (antibody, human IgG1, kappa, L234A L235A, N297A, name in Kabat numbering) heavy: QVQLVESGGGVVQPGRSLRLSCAASGFTFSNAWMHWVRQAPGKGLEWVAQIKAKSNNYATYYAESVKGRFTISRDDSKNSLYLQMNSLKTEDTAVYYCRYVHYGKYYGVDAWGQGTTVTVSSASTKGPSVFPLAPSSKSTSGGTAALGCLVKDYFPEPVTVSWNSGALTSGVHTFPAVLQSSGLYSLSSVVTVPSSSLGTQTYICNVNHKPSNTKVDKKVEPKSCDKTHTCPPCPAPEAAGGPSVFLFPPKPKDTLMISRTPEVTCVVVDVSHEDPEVKFNWYVDGVEVHNAKTKPREEQYASTYRVVSVLTVLHQDWLNGKEYKCKVSNKALPAPIEKTISKAKGQPREPQVYTLPPSRCELTKNQVSLSCAVKGFYPSDIAVEWESNGQPENNYKTTPPVLDSDGSFFLVSKLTVDKSRWQQGNVFSCSVMHEALHNHYTQKSLSLSPDYKDDDDK EPKSSDKTHTCPPCPAPELLGGPSVFLFPPKPKDTLMISRTPEVTCVVVDVSHEDPEVKFNWYVDGVEVHNAKTKPREEQYNSTYRVVSVLTVLHQDWLNGKEYKCKVSNKALPAPIEKTISKAKGQPREPQVCTLPPSRDELTKNQVSLWCLVKGFYPSDIAVEWESNGQPENNYKTTPPVLDSDGSFFLYSKLTVDKSRWQQGNVFSCSVMHEALHNRYTQKSLSLSP light: DIVMTQSPLSLPVTPGEPASISCRSSQSLVHSNRNTYLHWYQQKPGQAPRLLIYKVSNRFSGVPDRFSGSGSGTDFTLKISRVEAEDVGVYYCGQGTQVPYTFGQGTKLEIKRTVAAPSVFIFPPSDEQLKSGTASVVCLLNNFYPREAKVQWKVDNALQSGNSQESVTEQDSKDSTYSLSSTLTLSKADYEKHKVYACEVTHQGLSSPVTKSFNRGEC | 1.48
CE115HA000 A99L one-arm antibody (antibody, human IgG1, kappa, L234A L235A, N297A, name in Kabat numbering) heavy: QVQLVESGGGVVQPGRSLRLSCAASGFTFSNAWMHWVRQAPGKGLEWVAQIKAKSNNYATYYAESVKGRFTISRDDSKNSLYLQMNSLKTEDTAVYYCRYVHYGLYYGVDAWGQGTTVTVSSASTKGPSVFPLAPSSKSTSGGTAALGCLVKDYFPEPVTVSWNSGALTSGVHTFPAVLQSSGLYSLSSVVTVPSSSLGTQTYICNVNHKPSNTKVDKKVEPKSCDKTHTCPPCPAPEAAGGPSVFLFPPKPKDTLMISRTPEVTCVVVDVSHEDPEVKFNWYVDGVEVHNAKTKPREEQYASTYRVVSVLTVLHQDWLNGKEYKCKVSNKALPAPIEKTISKAKGQPREPQVYTLPPSRCELTKNQVSLSCAVKGFYPSDIAVEWESNGQPENNYKTTPPVLDSDGSFFLVSKLTVDKSRWQQGNVFSCSVMHEALHNHYTQKSLSLSPDYKDDDDK EPKSSDKTHTCPPCPAPELLGGPSVFLFPPKPKDTLMISRTPEVTCVVVDVSHEDPEVKFNWYVDGVEVHNAKTKPREEQYNSTYRVVSVLTVLHQDWLNGKEYKCKVSNKALPAPIEKTISKAKGQPREPQVCTLPPSRDELTKNQVSLWCLVKGFYPSDIAVEWESNGQPENNYKTTPPVLDSDGSFFLYSKLTVDKSRWQQGNVFSCSVMHEALHNRYTQKSLSLSP light: DIVMTQSPLSLPVTPGEPASISCRSSQSLVHSNRNTYLHWYQQKPGQAPRLLIYKVSNRFSGVPDRFSGSGSGTDFTLKISRVEAEDVGVYYCGQGTQVPYTFGQGTKLEIKRTVAAPSVFIFPPSDEQLKSGTASVVCLLNNFYPREAKVQWKVDNALQSGNSQESVTEQDSKDSTYSLSSTLTLSKADYEKHKVYACEVTHQGLSSPVTKSFNRGEC | 1.13
CE115HA000 A99F one-arm antibody (antibody, human IgG1, kappa, L234A L235A, N297A, name in Kabat numbering) heavy: QVQLVESGGGVVQPGRSLRLSCAASGFTFSNAWMHWVRQAPGKGLEWVAQIKAKSNNYATYYAESVKGRFTISRDDSKNSLYLQMNSLKTEDTAVYYCRYVHYGFYYGVDAWGQGTTVTVSSASTKGPSVFPLAPSSKSTSGGTAALGCLVKDYFPEPVTVSWNSGALTSGVHTFPAVLQSSGLYSLSSVVTVPSSSLGTQTYICNVNHKPSNTKVDKKVEPKSCDKTHTCPPCPAPEAAGGPSVFLFPPKPKDTLMISRTPEVTCVVVDVSHEDPEVKFNWYVDGVEVHNAKTKPREEQYASTYRVVSVLTVLHQDWLNGKEYKCKVSNKALPAPIEKTISKAKGQPREPQVYTLPPSRCELTKNQVSLSCAVKGFYPSDIAVEWESNGQPENNYKTTPPVLDSDGSFFLVSKLTVDKSRWQQGNVFSCSVMHEALHNHYTQKSLSLSPDYKDDDDK EPKSSDKTHTCPPCPAPELLGGPSVFLFPPKPKDTLMISRTPEVTCVVVDVSHEDPEVKFNWYVDGVEVHNAKTKPREEQYNSTYRVVSVLTVLHQDWLNGKEYKCKVSNKALPAPIEKTISKAKGQPREPQVCTLPPSRDELTKNQVSLWCLVKGFYPSDIAVEWESNGQPENNYKTTPPVLDSDGSFFLYSKLTVDKSRWQQGNVFSCSVMHEALHNRYTQKSLSLSP light: DIVMTQSPLSLPVTPGEPASISCRSSQSLVHSNRNTYLHWYQQKPGQAPRLLIYKVSNRFSGVPDRFSGSGSGTDFTLKISRVEAEDVGVYYCGQGTQVPYTFGQGTKLEIKRTVAAPSVFIFPPSDEQLKSGTASVVCLLNNFYPREAKVQWKVDNALQSGNSQESVTEQDSKDSTYSLSSTLTLSKADYEKHKVYACEVTHQGLSSPVTKSFNRGEC | 1.43
CE115HA000 A99D one-arm antibody (antibody, human IgG1, kappa, L234A L235A, N297A, name in Kabat numbering) heavy: QVQLVESGGGVVQPGRSLRLSCAASGFTFSNAWMHWVRQAPGKGLEWVAQIKAKSNNYATYYAESVKGRFTISRDDSKNSLYLQMNSLKTEDTAVYYCRYVHYGDYYGVDAWGQGTTVTVSSASTKGPSVFPLAPSSKSTSGGTAALGCLVKDYFPEPVTVSWNSGALTSGVHTFPAVLQSSGLYSLSSVVTVPSSSLGTQTYICNVNHKPSNTKVDKKVEPKSCDKTHTCPPCPAPEAAGGPSVFLFPPKPKDTLMISRTPEVTCVVVDVSHEDPEVKFNWYVDGVEVHNAKTKPREEQYASTYRVVSVLTVLHQDWLNGKEYKCKVSNKALPAPIEKTISKAKGQPREPQVYTLPPSRCELTKNQVSLSCAVKGFYPSDIAVEWESNGQPENNYKTTPPVLDSDGSFFLVSKLTVDKSRWQQGNVFSCSVMHEALHNHYTQKSLSLSPDYKDDDDK EPKSSDKTHTCPPCPAPELLGGPSVFLFPPKPKDTLMISRTPEVTCVVVDVSHEDPEVKFNWYVDGVEVHNAKTKPREEQYNSTYRVVSVLTVLHQDWLNGKEYKCKVSNKALPAPIEKTISKAKGQPREPQVCTLPPSRDELTKNQVSLWCLVKGFYPSDIAVEWESNGQPENNYKTTPPVLDSDGSFFLYSKLTVDKSRWQQGNVFSCSVMHEALHNRYTQKSLSLSP light: DIVMTQSPLSLPVTPGEPASISCRSSQSLVHSNRNTYLHWYQQKPGQAPRLLIYKVSNRFSGVPDRFSGSGSGTDFTLKISRVEAEDVGVYYCGQGTQVPYTFGQGTKLEIKRTVAAPSVFIFPPSDEQLKSGTASVVCLLNNFYPREAKVQWKVDNALQSGNSQESVTEQDSKDSTYSLSSTLTLSKADYEKHKVYACEVTHQGLSSPVTKSFNRGEC | 0.28
